Bridge positions count the residues as written; N and C are the ends. Square brackets hold non-standard residues; d marks the D form. Primed or numbered codes have the meaning given here. Side chains are listed from the residue outwards. Ends that are not written are not given here. * marks the point of attachment. :N‑O‑CH2‑CO‑PEG27 = oxime linkage (=N-O-CH2-CO-) to a PEG27 spacer; Biotin = O=C1N[C@H]2[C@H](CS[C@H]2CCCCC(=O)*)N1; PEG2(3) = PEG2 spacer carrying biotin on Lys; Palmitoyl = CCCCCCCCCCCCCCCC(=O)*; NMeL = CN[C@@H](CC(C)C)C(=O)O; PEG16″ = not defined here; PEG2″ = not defined here; PEG16′ = PEG-16 spacer
B1: KK-k-MeLeu-TCLASYCWLF (peptide)
peptide: KK[dK][NMeL]TCLASYCWLF
modifications: not fully specified; printed as KK-k-MeLeu-TCLASYCWLF; cysteine pairing not given here
B2: k-MeLeu-TCLASYCQLF (peptide)
peptide: [dK][NMeL]TCLASYCQLF
modifications: not fully specified (C-terminus); printed as k-MeLeu-TCLASYCQLF; cysteine pairing not given here
B3: K-k-MeLeu-TCLASYCWLF (peptide)
peptide: K[dK][NMeL]TCLASYCWLF
modifications: not fully specified; printed as K-k-MeLeu-TCLASYCWLF; cysteine pairing not given here
B4: KKK-k-MeLeu-TCLASYCWLF (peptide)
peptide: KKK[dK][NMeL]TCLASYCWLF
modifications: not fully specified; printed as KKK-k-MeLeu-TCLASYCWLF; cysteine pairing not given here
B5: (KLTCLASYCWLFG)2═N-O-(CH2)3-O-N═ (peptide)
peptide: KLTCLASYCWLFG
modifications: cysteine pairing not given here; also: dimer: two copies joined by ═N-O-(CH2)3-O-N═ (linker 1) at residue 13
B6: KLLKLLLKLLLKLLK-k-MeLeu-TCLASYCWLF (peptide)
peptide: KLLKLLLKLLLKLLK[dK][NMeL]TCLASYCWLF
modifications: not fully specified; printed as KLLKLLLKLLLKLLK-k-MeLeu-TCLASYCWLF; cysteine pairing not given here
B7: k-MeLeu-TCLASYCWLA (peptide)
peptide: [dK][NMeL]TCLASYCWLA
modifications: not fully specified (C-terminus); printed as k-MeLeu-TCLASYCWLA; cysteine pairing not given here
B8: Palmitoyl-(PEG)27(PEG)27-KLTCLASYCWLF (peptide)
peptide: {Palmitoyl-(PEG)27-(PEG)27}-KLTCLASYCWLF
modifications: disulfide 4-9 (inferred); not fully specified (C-terminus); printed as Palmitoyl-(PEG)27(PEG)27-KLTCLASYCWLF
B9: rRAAGKLTCLASYCWLFATGIA (peptide)
peptide: [dR]RAAGKLTCLASYCWLFATGIA
modifications: not fully specified (C-terminus); printed as rRAAGKLTCLASYCWLFATGIA; cysteine pairing not given here
B10: H3N-KLTCLASYCWLFG═N-O-CH2-CO-PEG27-CNPRGD-(Y-OEt)-RC (peptide)
peptide: H-KLTCLASYCWLFG[:N‑O‑CH2‑CO‑PEG27]CNPRGDY(OEt)RC
modifications: numbers in words are those of the source; cysteine pairing not given here; also: oxime link =N-O-CH2-CO-PEG27 between G13 and C14, Y20 as Y-OEt

biological target: human Factor IXa (human, UniProt P00740 47-191; P00740 227-461); assay: cell-based or functional assay

Binder | EC50 [µM], FXa generation assay
RAAPGKLQCLASYCWLFWTGIA | < 0.5 µM
KRYVYRQMCLVSACWLLQLGYA | < 0.5 µM
RRAAGKLQCLASYCWLFWTGIA | < 0.5 µM
B1 | > 10 µM
SRQSDKPTCLAISCSLLTSNVR | > 50 µM
RGRSAKLRCLASYCWLFFTVIL | < 0.5 µM
GASGRRRTCVASYCLLFQSGLP | > 25 µM
B2 | > 1 µM
KKLTCLASYCWLF (not fully specified; D-Lys 1, D-Lys 2, MeLeu 3) [k-k-MeLeu-TCLASYCWLF] | > 2.5 µM
{Palmitoyl-(PEG)27}-KLTCLASYCWLF (cysteine pairing not given here) [Palmitoyl-(PEG)27-KLTCLASYCWLF] | > 1 µM
KGAYQKLTCLASYCLLFLLTAQ | < 0.5 µM
SKWEHQRGCLANNCWLFTLAPG | > 50 µM
RHSNHNLTCQASYCWLLPAGLQ | > 1 µM
RRAPGKLQCLASYCWLFATAIA | < 0.5 µM
Ac-K[dK][NMeL]TCLASYCWLF (cysteine pairing not given here) [Ac-K-k-MeLeu-TCLASYCWLF] | < 0.5 µM
VARASKVECLASYCQLFVGGEV | > 1 µM
B3 | > 1 µM
B4 | > 20 µM
HQQRRKLTCLAGYCWLFVLGPS (not fully specified; cysteine pairing not given here) | > 1 µM
B5 | < 0.5 µM
B6 | < 0.5 µM
RGRSAKLTCLASYCWLFFGVIL | < 0.5 µM
ARAPGKLQCLASYCWLFWTGIA | < 0.5 µM
VSGTGRLTCVASYCWMFQLGSF | < 0.5 µM
QEQPAKLTCRGSYCWLFKRGDQ | > 50 µM

Binder | EC50 [µM], FXa generation assay
GDSGRKLSCLGSYCWLSVQFMA | < 0.5 µM
RGSVHQPTCLGGYCGRLHSSWV | > 50 µM
B7 | > 1 µM
B8 | > 20 µM
[dK][NMeL]TCLASYCWLF (not fully specified (residue 8); cysteine pairing not given here) [k-MeLeu-TCLAS-(Y-OMe)-CWLF] | < 0.5 µM
DAKVAKLRCLGSQCWLLQYAPG | < 0.5 µM
R[dK][NMeL]TCLASYCWLF (cysteine pairing not given here) [R-k-MeLeu-TCLASYCWLF] | > 1 µM
HGLADRLTCLSSDCWLQPFGTS | > 50 µM
[dR]RAPGKLTCLASYCWLFWTGIA[PEG16′]K([PEG2(3)-Biotin])[PEG16′]K(Palmitoyl) (cysteine pairing not given here) [rRAPGKLTCLASYCWLFWTGIA-PEG16-Lys(PEG2-Biotin)-PEG16-Lys(palmitoyl)] | > 1 µM
QAKMLKLTCLASYCWLFWVTRS | < 0.5 µM
B9 | < 0.5 µM
[PEG16″]K([PEG2″-Biotin])[PEG16″][dR]RAPGKLTCLASYCWLFWTGIA (cysteine pairing not given here) [PEG16-Lys(PEG2-Biotin)-PEG16-rRAPGKLTCLASYCWLFWTGIA] | > 1 µM
RGRSAKLRCLASYCWLFFGVIL | < 0.5 µM
RSTVSQMRCLASYCWLFPALVS | < 0.5 µM
HLGSPKLTCGASQCWLLNHEVS | > 50 µM
B10 | > 50 µM
HDSLDQLTCLASVCQLASMGAR | > 1 µM
NGGMQKPACLASQCWLFANPLP | > 1 µM
VSGTGRLTCVASYCWMFQLGIF | < 0.5 µM
[dR]RAPGKLTCLASYCWLFWTGIA[PEG16″]K([PEG2″-Biotin])[PEG16″] (cysteine pairing not given here) [rRAPGKLTCLASYCWLFWTGIA-PEG16-Lys(PEG2-Biotin)-PEG16] | < 0.5 µM
RQLWNKLTCLASYCALIGLSGT | > 1 µM
VSGTGKLTCLASYCWLFQLGSF | < 0.5 µM
RRAPAKLQCLASYCWLFWTGIA | < 0.5 µM
FPIQHKLTCLSSDCWLFPSHSY | > 50 µM

Source: US20140303084A1 (Biogen, published 2014)
